Publication PMC12373786, “Targeted protein degradation in Escherichia coli using CLIPPERs” (EMBO Reports, 2025)
Each block holds one molecule with its values, some of them ahead of it. Square brackets hold non-standard residues; d marks the D form. Primed or numbered codes have the meaning given here. Ends that are not written are not given here. PEG3′ = three-unit polyethylene glycol linker

Assays:
[1] = molecular target: His-SUMO-XB-GGS (E. coli); assay: BLI; His-SUMO-tagged peptide loaded on Octet NTA biosensors (150 nM Anchor-Linker or 100 nM GroTAC1), blocked with His-SUMO; ClpX 1 uM to 31.25 nM in solution; 30 °C; 25 mM HEPES pH 8.0, 200 mM KCl, 10 mM MgCl2, 0.05% Tween-20, 2.5 mM ATP; 1:1 model
[2] = molecular target: His-SUMO-XB-GGS-SBP (E. coli); assay: as above
[3] = molecular target: His-SUMO-XB-GGS (E. coli); assay: BLI; His-SUMO-tagged peptide loaded on Octet NTA biosensors (150 nM Anchor-Linker or 100 nM GroTAC1), blocked with 86 nM His-SUMO; ClpX as analyte, 1 uM to 31.25 nM; 30 C; 25 mM HEPES pH 8.0, 200 mM KCl, 10 mM MgCl2, 0.05% Tween-20, 2.5 mM ATP; 1:1 fit
[4] = molecular target: His-SUMO-XB-GGS-SBP (E. coli); assay: as above
His-SUMO-GGS-SBP [5] = assay: BLI; His-SUMO-tagged peptide loaded on Octet NTA biosensors (200 nM Linker-Bait or 400 nM GroTAC1), blocked with His-SUMO; GroEL 2.5 uM to 78.1 nM in solution; 30 °C; 25 mM HEPES pH 8.0, 300 mM KCl, 10 mM MgCl2, 0.05% Tween-20, 12.5 mM ATP; 1:1 model
[6] = molecular target: His-SUMO-XB-GGS-SBP (E. coli); assay: as above
His-SUMO-GGS-SBP [7] = assay: BLI; His-SUMO-tagged peptide loaded on Octet NTA biosensors (200 nM Linker-Bait or 400 nM GroTAC1), blocked with 257 nM His-SUMO; GroEL as analyte, 2.5 uM to 78.1 nM; 30 C; 25 mM HEPES pH 8.0, 300 mM KCl, 10 mM MgCl2, 0.05% Tween-20, 12.5 mM ATP; 1:1 fit
[8] = molecular target: His-SUMO-XB-GGS-SBP (E. coli); assay: as above
His-ZBD = molecular target: T1, His-ZBD (E. coli, UniProt P0A6H1 1-52); assay: BLI; 1.37 uM His-ZBD loaded on Octet NTA biosensors, blocked with 600 nM cAbGFP; untagged synthetic peptide as analyte, 1 uM to 31.25 nM; 30 C; 25 mM HEPES pH 8.0, 200 mM KCl, 10 mM MgCl2, 2.5 mM ATP, 0.05% Tween 20; 1:1 fit; conditions: both partners purified
T1 construct: also called 6xHis-ZBD; source: E. coli BL21 DE3, purified (HisTrap, Superdex200); not shown: His6, N-terminal, kept
T1 sequence (looked up): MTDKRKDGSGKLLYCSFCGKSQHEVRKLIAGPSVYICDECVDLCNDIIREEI

- Kd (His-SUMO-GGS-SBP [5]): 94 nM
- Kd [6]: 154 nM
- Kd (His-SUMO-GGS-SBP [7]): 93.6 nM
- koff (His-SUMO-GGS-SBP [7]): 0.00919 s⁻¹
- kon (His-SUMO-GGS-SBP [7]): 98200 M⁻¹ s⁻¹
- koff [8]: 0.00409 s⁻¹
- kon [8]: 26600 M⁻¹ s⁻¹
Molecule: GroEL (from UniProt P0A6F5 1-548) (natural protein)

- Kd (His-ZBD): 52.6 nM
- koff (His-ZBD): 0.00165 s⁻¹
- kon (His-ZBD): 31400 M⁻¹ s⁻¹
B2: GroTAC2 (synthetic) (designed binder)
peptide: CYRGGRPALRVVKGGSGGSGGSWMTTPWGFHLP
notes: flexible linker; also called untagged, synthetic GroTAC2; source: synthetic peptide (GeneScript)

Second part, the molecule before the results:

Molecule: ClpX (from UniProt P0A6H1 1-424) (enzyme)
- Kd [1]: 65 nM
- Kd [2]: 70 nM
- Kd [3]: 64.8 nM
- koff [3]: 0.00495 s⁻¹
- kon [3]: 76500 M⁻¹ s⁻¹
- Kd [4]: 70.4 nM
- koff [4]: 0.00769 s⁻¹
- kon [4]: 109000 M⁻¹ s⁻¹

B1: GroTAC3 (synthetic) (designed binder)
peptide: CYRGGRPALRVVK[PEG3′]SWMTTPWGFHLP
notes: residues 17-28 in the model PDB 8S32; the (PEG)3 linker is no amino acid stretch; also called XB-PEG3-SBP; source: synthetic peptide (KareBay Biochem)
- Kd (His-ZBD): 82.4 nM
- koff (His-ZBD): 0.000915 s⁻¹
- kon (His-ZBD): 11100 M⁻¹ s⁻¹
